Assay results published in US20210054097A1 (Novo Nordisk, published 2021).
Ends that are not written are not given here.

T1: FX activation peptide 12-mer SVAQATSSSGEA (human)
T1 peptide: SVAQATSSSGEA-biotin

T2: FX activation peptide 12-mer VAQATSSSGEAP (human)
T2 peptide: VAQATSSSGEAP-biotin

T3: FX activation peptide 12-mer AQATSSSGEAPD (human)
T3 peptide: AQATSSSGEAPD-biotin

T4: FX activation peptide 12-mer ATSSSGEAPDSI (human)
T4 peptide: ATSSSGEAPDSI-biotin

T5: FX activation peptide 12-mer TSSSGEAPDSIT (human)
T5 peptide: TSSSGEAPDSIT-biotin

T6: FX activation peptide 12-mer SSSGEAPDSITW (human)
T6 peptide: SSSGEAPDSITW-biotin

T7: FX activation peptide 12-mer SSGEAPDSITWK (human)
T7 peptide: SSGEAPDSITWK-biotin

T8: FX activation peptide 12-mer SGEAPDSITWKP (human)
T8 peptide: SGEAPDSITWKP-biotin

T9: FX activation peptide 12-mer EAPDSITWKPYD (human)
T9 peptide: EAPDSITWKPYD-biotin

T10: FX activation peptide 12-mer APDSITWKPYDA (human)
T10 peptide: APDSITWKPYDA-biotin

T11: FX activation peptide 12-mer PDSITWKPYDAA (human)
T11 peptide: PDSITWKPYDAA-biotin

T12: FX activation peptide 12-mer DSITWKPYDAAD (human)
T12 peptide: DSITWKPYDAAD-biotin

T13: FX activation peptide 12-mer SITWKPYDAADL (human)
T13 peptide: SITWKPYDAADL-biotin

T14: FX activation peptide 12-mer ITWKPYDAADLD (human)
T14 peptide: ITWKPYDAADLD-biotin

T15: FX activation peptide 12-mer TWKPYDAADLDP (human)
T15 peptide: TWKPYDAADLDP-biotin

T16: FX activation peptide 12-mer WKPYDAADLDPT (human)
T16 peptide: WKPYDAADLDPT-biotin

T17: FX activation peptide 12-mer KPYDAADLDPTE (human)
T17 peptide: KPYDAADLDPTE-biotin

T18: FX activation peptide 12-mer PYDAADLDPTEN (human)
T18 peptide: PYDAADLDPTEN-biotin

T19: FX activation peptide 12-mer YDAADLDPTENP (human)
T19 peptide: YDAADLDPTENP-biotin

T20: FX activation peptide 12-mer AADLDPTENPFD (human)
T20 peptide: AADLDPTENPFD-biotin

T21: FX activation peptide 12-mer ADLDPTENPFDL (human)
T21 peptide: ADLDPTENPFDL-biotin

T22: FX activation peptide 12-mer DLDPTENPFDLL (human)
T22 peptide: DLDPTENPFDLL-biotin

T23: FX activation peptide 12-mer TENPFDLLDFNQ (human)
T23 peptide: TENPFDLLDFNQ-biotin

T24: FX activation peptide 12-mer ENPFDLLDFNQT (human)
T24 peptide: ENPFDLLDFNQT-biotin

T25: FX activation peptide 12-mer NPFDLLDFNQTQ (human)
T25 peptide: NPFDLLDFNQTQ-biotin

T26: FX activation peptide 12-mer FDLLDFNQTQPE (human)
T26 peptide: FDLLDFNQTQPE-biotin

T27: FX activation peptide 12-mer DLLDFNQTQPER (human)
T27 peptide: DLLDFNQTQPER-biotin

T28: FX activation peptide 12-mer LLDFNQTQPERG (human)
T28 peptide: LLDFNQTQPERG-biotin

T29: FX activation peptide 12-mer LDFNQTQPERGD (human)
T29 peptide: LDFNQTQPERGD-biotin

T30: FX activation peptide 12-mer DFNQTQPERGDN (human)
T30 peptide: DFNQTQPERGDN-biotin

T31: FX activation peptide 12-mer NQTQPERGDNNL (human)
T31 peptide: NQTQPERGDNNL-biotin

T32: FX activation peptide 12-mer QTQPERGDNNLT (human)
T32 peptide: QTQPERGDNNLT-biotin

B1: Nb 702C12 (VHH)
VHH: EVQLVESGGGVVQPGGSLRLSCVASGRTFSRYAMGWFRQAPGKEREFVAAISRRGGSTNYADSVKGRFTISRDNSKNTVYLQMNSLRPEDTALYYCAADYSSGDGYLDYWGQGTLVTVSS
notes: monovalent Nanobody; not shown: C-terminal FLAG3 and HIS6 tag
B2: Nb 729A04 (VHH)
VHH: EVQLVESGGGVVQPGGSLRLSCAASGFTFSDYAMSWVRQAPGKGLEWVSGITSGGGRTYYADSVKGRFTISRDNSKNTLYLQMNSLRPEDTALYYCAAVRTLGLRGSYDYWGQGTLVTVSS
notes: as for B1

Target: T1, FX activation peptide 12-mer …
Assay: peptide ELISA
Description: (§1) The peptides were C-terminally conjugated to biotin and 50 μL of 1 μg/mL peptide solution was used for immobilization in discrete wells of the microtiter plate which was pre-coated with 1 μg/mL streptavidin. Each well was washed with washing buffer (10 mM Tris, 150 mM NaCl, 2.5 mM CaCl₂, 0.05% Tween 20, pH 8.60) followed by addition of 50 μL of 2 μg/mL FLAG-tagged anti-FX Nanobody® or IgG antibody to be tested. After 1 hour non-bound Nanobody®/antibody was washed off using washing buffer.
(§2) Bound anti-FX activation peptide ligand was detected by first binding a HRP-labelled secondary antibody (for FLAG-tagged Nanobodies: Anti-FLAG mAb M2-Peroxidase (HRP) (Sigma Aldrich, US), for antibody: Fcγ Fragment Specific Peroxidase AffiniPure F(ab′)₂ Fragment Goat Anti-Human IgG (Jackson ImmunoResearch Laboratories, Inc., US), or Peroxidase AffiniPure Goat Anti-Mouse IgG (Jackson ImmunoResearch Laboratories, Inc., US)) for 1 hour, and then adding 100 μL TMB-1 ELISA substrate (Kem-En-Tec Diagnostics, Denmark).

ELISA signal relative to background	Binder
0.96	B1
0.92	B2

Target: T2, FX activation peptide 12-mer …
Assay: peptide ELISA
Description: as §1, §2

ELISA signal relative to background	Binder
1.02	B1
0.99	B2

Target: T3, FX activation peptide 12-mer …
Assay: peptide ELISA
Description: as §1, §2

ELISA signal relative to background	Binder
0.97	B1
1.08	B2

Target: T4, FX activation peptide 12-mer …
Assay: peptide ELISA
Description: as §1, §2

ELISA signal relative to background	Binder
0.98	B1
1.24	B2

Target: T5, FX activation peptide 12-mer …
Assay: peptide ELISA
Description: as §1, §2

ELISA signal relative to background	Binder
0.77	B1
1.12	B2

Target: T6, FX activation peptide 12-mer …
Assay: peptide ELISA
Description: as §1, §2

ELISA signal relative to background	Binder
0.86	B1
1.24	B2

Target: T7, FX activation peptide 12-mer …
Assay: peptide ELISA
Description: as §1, §2

ELISA signal relative to background	Binder
0.88	B1
0.96	B2

Target: T8, FX activation peptide 12-mer …
Assay: peptide ELISA
Description: as §1, §2

ELISA signal relative to background	Binder
0.88	B1
0.98	B2

Target: T9, FX activation peptide 12-mer …
Assay: peptide ELISA
Description: as §1, §2

ELISA signal relative to background	Binder
0.97	B1
1.01	B2

Target: T10, FX activation peptide 12-mer …
Assay: peptide ELISA
Description: as §1, §2

ELISA signal relative to background	Binder
1.06	B1
1.04	B2

Target: T11, FX activation peptide 12-mer …
Assay: peptide ELISA
Description: as §1, §2

ELISA signal relative to background	Binder
1.05	B1
0.95	B2

Target: T12, FX activation peptide 12-mer …
Assay: peptide ELISA
Description: as §1, §2

ELISA signal relative to background	Binder
1.08	B1
1.05	B2

Target: T13, FX activation peptide 12-mer …
Assay: peptide ELISA
Description: as §1, §2

ELISA signal relative to background	Binder
1.08	B1
1.13	B2

Target: T14, FX activation peptide 12-mer …
Assay: peptide ELISA
Description: as §1, §2

ELISA signal relative to background	Binder
1.1	B1
1.28	B2

Target: T15, FX activation peptide 12-mer …
Assay: peptide ELISA
Description: as §1, §2

ELISA signal relative to background	Binder
1.13	B1
0.99	B2

Target: T16, FX activation peptide 12-mer …
Assay: peptide ELISA
Description: as §1, §2

ELISA signal relative to background	Binder
0.89	B1
1.2	B2

Target: T17, FX activation peptide 12-mer …
Assay: peptide ELISA
Description: as §1, §2

ELISA signal relative to background	Binder
0.8	B1
1.33	B2

Target: T18, FX activation peptide 12-mer …
Assay: peptide ELISA
Description: as §1, §2

ELISA signal relative to background	Binder
0.83	B1
1.06	B2

Target: T19, FX activation peptide 12-mer …
Assay: peptide ELISA
Description: as §1, §2

ELISA signal relative to background	Binder
0.87	B1
1.06	B2

Target: T20, FX activation peptide 12-mer …
Assay: peptide ELISA
Description: as §1, §2

ELISA signal relative to background	Binder
0.88	B1
1.05	B2

Target: T21, FX activation peptide 12-mer …
Assay: peptide ELISA
Description: as §1, §2

ELISA signal relative to background	Binder
0.91	B1
0.98	B2

Target: T22, FX activation peptide 12-mer …
Assay: peptide ELISA
Description: as §1, §2

ELISA signal relative to background	Binder
1	B1
1.06	B2

Target: T23, FX activation peptide 12-mer …
Assay: peptide ELISA
Description: as §1, §2

ELISA signal relative to background	Binder
4.84	B1
9.12	B2

Target: T24, FX activation peptide 12-mer …
Assay: peptide ELISA
Description: as §1, §2

ELISA signal relative to background	Binder
4	B1
17.8	B2

Target: T25, FX activation peptide 12-mer …
Assay: peptide ELISA
Description: as §1, §2

ELISA signal relative to background	Binder
3.13	B1
8.27	B2

Target: T26, FX activation peptide 12-mer …
Assay: peptide ELISA
Description: as §1, §2

ELISA signal relative to background	Binder
4.38	B1

Target: T27, FX activation peptide 12-mer …
Assay: peptide ELISA
Description: as §1, §2

ELISA signal relative to background	Binder
3.08	B1
1.12	B2

Target: T28, FX activation peptide 12-mer …
Assay: peptide ELISA
Description: as §1, §2

ELISA signal relative to background	Binder
1.1	B2

Target: T29, FX activation peptide 12-mer …
Assay: peptide ELISA
Description: as §1, §2

ELISA signal relative to background	Binder
0.97	B1
0.98	B2

Target: T30, FX activation peptide 12-mer …
Assay: peptide ELISA
Description: as §1, §2

ELISA signal relative to background	Binder
0.94	B1
0.97	B2

Target: T31, FX activation peptide 12-mer …
Assay: peptide ELISA
Description: as §1, §2

ELISA signal relative to background	Binder
0.92	B1
1.13	B2

Target: T32, FX activation peptide 12-mer …
Assay: peptide ELISA
Description: as §1, §2

Binder	ELISA signal relative to background
B1	0.88
B2	1.11

Target: human activated Factor X (human, UniProt P00742 41-179; P00742 235-488)
Sequence (P00742 41-179, chain 1 of 2): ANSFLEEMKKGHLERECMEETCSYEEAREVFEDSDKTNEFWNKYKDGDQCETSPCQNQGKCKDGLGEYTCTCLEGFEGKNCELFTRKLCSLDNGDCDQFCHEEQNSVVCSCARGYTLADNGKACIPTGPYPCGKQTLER
Sequence (P00742 235-488, chain 2 of 2): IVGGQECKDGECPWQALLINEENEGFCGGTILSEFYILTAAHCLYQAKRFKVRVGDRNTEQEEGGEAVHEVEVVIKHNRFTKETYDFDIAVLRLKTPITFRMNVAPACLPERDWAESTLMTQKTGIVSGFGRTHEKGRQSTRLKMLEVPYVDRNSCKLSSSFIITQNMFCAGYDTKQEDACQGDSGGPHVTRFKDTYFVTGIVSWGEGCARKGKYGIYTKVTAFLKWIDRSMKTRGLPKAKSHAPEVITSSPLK
Assay: cell-based or functional assay

FXa amidolytic activity (relative to free FXa, fold)	Binder
1.05 fold	B1
1.11 fold	B2
